Each block holds one binder with its values, some of them ahead of it.
B1: LKB1 (enzyme, UniProt Q15831 1-430, looked up)
chain: MEVVDPQQLGMFTEGELMSVGMDTFIHRIDSTEVIYQPRRKRAKLIGKYLMGDLLGEGSYGKVKEVLDSETLCRRAVKILKKKKLRRIPNGEANVKKEIQLLRRLRHKNVIQLVDVLYNEEKQKMYMVMEYCVCGMQEMLDSVPEKRFPVCQAHGYFCQLIDGLEYLHSQGIVHKDIKPGNLLLTTGGTLKISDLGVAEALHPFAADDTCRTSQGSPAFQPPEIANGLDTFSGFKVDIWSAGVTLYNITTGLYPFEGDNIYKLFENIGKGSYAIPGDCGPPLSDLLKGMLEYEPAKRFSIRQIRQHSWFRKKHPPAEAPVPIPPSPDTKDRWRSMTVVPYLEDLHGADEDEDLFDIEDDIIYTQDFTVPGQVPEEEASHNGQRRGLPKAVCMNGTEAAQLSTKSRAEGRAPNPARKACSASSKIRRLSAC
notes: Cellular protein co-precipitated with FLAG-tagged AMPKα

Legend:
[1] = biological target: T1, WT AMPKα2 (FLAG-tagged, expressed in HCT116 cells) (human, UniProt P54646 1-552); test: FLAG-bead immunoprecipitation from HCT116 lysates, LKB1 immunoblot (FIG. 5G)
T1 construct: Precipitated from cell lysates with FLAG beads; ubiquitinated in part in cells; also called FLAG-AMPKα; not shown: FLAG tag

[2] = biological target: T2, WT AMPKα1 (FLAG-tagged, expressed in HCT116 cells) (human, UniProt Q13131 1-559); test: FLAG-bead immunoprecipitation from HCT116 lysates, LKB1 immunoblot (FIG. 6F)
T2 construct: Precipitated from cell lysates with FLAG beads; ubiquitinated in part in cells; also called FLAG-AMPKα; not shown: FLAG tag

[3] = biological target: B1; test: FLAG-bead immunoprecipitation from HCT116 lysates, LKB1 immunoblot (FIG. 5G)
[4] = biological target: T3, Purified His6-USP10 (human, UniProt Q14694 1-798); test: GST pull-down with recombinant proteins (FIG. 3A)
T3 construct: also called His-USP10; recombinant USP10; not shown: His6 tag
Description: Purified His6-USP10 was incubated with the indicated GST tagged AMPK subunits coupled to GSH-Sepharose. Proteins retained on Sepharose were then blotted with the indicated antibodies. FIGS. 3B-3D are immunoblots showing the interaction of USP10 with AMPKα in cells. HCT116 cell lysates were subjected to immunoprecipitation (IP) with control IgG, anti-USP10 (FIG. 3B), anti-AMPKα1 (FIG. 3C), anti-AMPKα2 (FIG. 3D) antibodies. The immunoprecipitates were then blotted with the indicated antibodies. […] 293T cells transfected with the indicated constructs were lysed, and lysates were incubated with anti-FLAG beads. Proteins retained on beads were blotted with the indicated antibodies. […] HCT116 cells infected with lentivirus encoding the indicated shRNAs were transfected with the indicated constructs. Cell lysates and Ni-NTA pulldowns were immunoblotted as indicated. -Glu, glucose starvation. FIG. 3G is a picture of an immunoblot showing that USP10 deubiquitinase activity is required for AMPK deubiquitination. The indicated constructs were transfected into USP10 knockdown cell lines, and cells were placed in medium without glucose for 4 hours. Cell lysates were incubated with anti-HA beads and immunoblotted with the indicated antibodies. -Glu, glucose starvation. FIG. 3H is a picture of an immunoblot showing deubiquitination of AMPKα2 in vitro by USP10. Ubiquitinated AMPKα2 was incubated with purified USP10 or USP10CA in vitro, and then blotted with indicated antibodies.
Immunoprecipitation, immunoblotting, and in vitro pull-down assay—Cell lysates were prepared and immunoprecipitation and immunoblotting were performed as described elsewhere (Yuan et al., supra). In brief, cells were lysed with NETN buffer (20 mM Tris-HCl, pH 8.0, 100 mM NaCl, 1 mM EDTA, 0.5% Nonidet P-40) containing 50 mM β-glycerophosphate, 10 mM NaF, and 1 mg/ml each of pepstatin A and aprotinin.

[5] = biological target: B1; test: FLAG-bead immunoprecipitation from HCT116 lysates, LKB1 immunoblot (FIG. 6F)

T3 sequence (Q14694 whole entry): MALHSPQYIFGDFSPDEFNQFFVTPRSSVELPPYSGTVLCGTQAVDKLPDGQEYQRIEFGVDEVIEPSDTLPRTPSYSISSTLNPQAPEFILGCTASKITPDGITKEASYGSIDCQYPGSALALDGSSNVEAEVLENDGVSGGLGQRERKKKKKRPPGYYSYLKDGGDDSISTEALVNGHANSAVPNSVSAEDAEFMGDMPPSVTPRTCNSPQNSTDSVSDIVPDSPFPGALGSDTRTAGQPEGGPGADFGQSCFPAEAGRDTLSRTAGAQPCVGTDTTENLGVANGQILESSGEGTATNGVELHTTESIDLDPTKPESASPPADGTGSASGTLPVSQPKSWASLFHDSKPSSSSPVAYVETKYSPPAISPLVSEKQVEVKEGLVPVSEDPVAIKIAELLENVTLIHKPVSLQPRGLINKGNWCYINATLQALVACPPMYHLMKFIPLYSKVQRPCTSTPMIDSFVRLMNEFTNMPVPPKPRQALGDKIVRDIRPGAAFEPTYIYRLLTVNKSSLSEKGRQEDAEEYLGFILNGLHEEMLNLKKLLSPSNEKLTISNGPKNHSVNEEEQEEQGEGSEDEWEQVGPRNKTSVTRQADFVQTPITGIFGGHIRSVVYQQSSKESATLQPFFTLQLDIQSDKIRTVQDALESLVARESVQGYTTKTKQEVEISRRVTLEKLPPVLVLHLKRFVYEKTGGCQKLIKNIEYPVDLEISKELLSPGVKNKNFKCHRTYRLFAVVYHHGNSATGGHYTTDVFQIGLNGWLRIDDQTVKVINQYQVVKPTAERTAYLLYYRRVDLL

- binding result [4]: no binding
B5: GST tagged AMPK γ1 (other, UniProt P54619 1-331, looked up)
chain: METVISSDSSPAVENEHPQETPESNNSVYTSFMKSHRCYDLIPTSSKLVVFDTSLQVKKAFFALVTNGVRAAPLWDSKKQSFVGMLTITDFINILHRYYKSALVQIYELEEHKIETWREVYLQDSFKPLVCISPNASLFDAVSSLIRNKIHRLPVIDPESGNTLYILTHKRILKFLKLFITEFPKPEFMSKSLEELQIGTYANIAMVRTTTPVYVALGIFVQHRVSALPVVDEKGRVVDIYSKFDVINLAAEKTYNNLDVSVTKALQHRSHYFEGVLKCYLHETLETIINRLVEAEVHRLVVVDENDVVKGIVSLSDILQALVLTGGEKKP
notes: not shown: glutathione S-transferase tag of vector pGEX-4T-1

- binding result [4]: no binding
B6: GST tagged AMPK β2 (other, UniProt O43741 1-272, looked up)
chain: MGNTTSDRVSGERHGAKAARSEGAGGHAPGKEHKIMVGSTDDPSVFSLPDSKLPGDKEFVSWQQDLEDSVKPTQQARPTVIRWSEGGKEVFISGSFNNWSTKIPLIKSHNDFVAILDLPEGEHQYKFFVDGQWVHDPSEPVVTSQLGTINNLIHVKKSDFEVFDALKLDSMESSETSCRDLSSSPPGPYGQEMYAFRSEERFKSPPILPPHLLQVILNKDTNISCDPALLPEPNHVMLNHLYALSIKDSVMVLSATHRYKKKYVTTLLYKPI
notes: as for B5

Further lines, the binder ahead of its results:

Binder: B1
- binding result [1]: binds
- binding result [2]: binds

B2: AMPKα2 4KR mutant (FLAG-tagged, expressed in HCT116 cells) (enzyme)
chain: MAEKQKHDGRVKIGHYVLGDTLGVGTFGKVKIGEHQLTGHKVAVKILNRQKIRSLDVVGRIKREIQNLKLFRHPHIIKLYQVISTPTDFFMVMEYVSGGELFDYICKHGRVEEMEARRLFQQILSAVDYCHRHMVVHRDLKPENVLLDAHMNAKIADFGLSNMMSDGEFLRTSCGSPNYAAPEVISGRLYAGPEVDIWSCGVILYALLCGTLPFDDEHVPTLFKKIRGGVFYIPEYLNRSVATLLMHMLQVDPLKRATIKDIREHEWFKQDLPSYLFPEDPSYDANVIDDEAVKEVCEKFECTESEVMNSLYSGDPQDQLAVAYHLIIDNRRIMNQASEFYLASSPPSGSFMDDSAMHIPPGLKPHPERMPPLIADSPRARCPLDALNTTRPKSLAVKKAKWHLGIRSQSKPYDIMAEVYRAMKQLDFEWKVVNAYHLRVRRKNPVTGNYVKMSLQLYLVDNRSYLLDFRSIDDEVVEQRSGSSTPQRSCSAAGLHRPRSSFDSTTAESHSLSGSLTGSLTGSTLSSVSPRLGSHTMDFFEMCASLITTLAR
notes: also called quadruple K to R mutant (4KR); AMPKα 4KR mutant; not shown: FLAG tag
- binding result [3]: binds

B3: GST tagged AMPK β1 (other, UniProt Q9Y478 1-270, looked up)
chain: MGNTSSERAALERHGGHKTPRRDSSGGTKDGDRPKILMDSPEDADLFHSEEIKAPEKEEFLAWQHDLEVNDKAPAQARPTVFRWTGGGKEVYLSGSFNNWSKLPLTRSHNNFVAILDLPEGEHQYKFFVDGQWTHDPSEPIVTSQLGTVNNIIQVKKTDFEVFDALMVDSQKCSDVSELSSSPPGPYHQEPYVCKPEERFRAPPILPPHLLQVILNKDTGISCDPALLPEPNHVMLNHLYALSIKDGVMVLSATHRYKKKYVTTLLYKPI
notes: as for B5
- binding result [4]: no binding

B4: AMPKα1 4KR mutant (FLAG-tagged, expressed in HCT116 cells) (enzyme)
chain: MRRLSSWRKMATAEKQKHDGRVKIGHYILGDTLGVGTFGKVKVGKHELTGHKVAVKILNRQKIRSLDVVGRIRREIQNLKLFRHPHIIKLYQVISTPSDIFMVMEYVSGGELFDYICKNGRLDEKESRRLFQQILSGVDYCHRHMVVHRDLKPENVLLDAHMNAKIADFGLSNMMSDGEFLRTSCGSPNYAAPEVISGRLYAGPEVDIWSSGVILYALLCGTLPFDDDHVPTLFKKICDGIFYTPQYLNPSVISLLKHMLQVDPMKRATIKDIREHEWFKQDLPRYLFPEDPSYSSTMIDDEALKEVCEKFECSEEEVLSCLYNRNHQDPLAVAYHLIIDNRRIMNEAKDFYLATSPPDSFLDDHHLTRPHPERVPFLVAETPRARHTLDELNPQRSKHQGVRKAKWHLGIRSQSRPNDIMAEVCRAIKQLDYEWKVVNPYYLRVRRKNPVTSTYSKMSLQLYQVDSRTYLLDFRSIDDEITEARSGTATPQRSGSVSNYRSCQRSDSDAEAQGKSSEVSLTSSVTSLDSSPVDLTPRPGSHTIEFFEMCANLIKILAQ
notes: also called 4KR AMPKα1; AMPKα 4KR mutant; not shown: FLAG tag
- binding result [5]: binds
